The values below come from the supplement of paper PMC9112550, “Optimization of the antimicrobial peptide Bac7 by deep mutational scanning” (BMC Biology, 2022).

For the series, the system named is Escherichia coli TOP10. Put plainly: shrunken log2 fold change of peptide-encoding DNA abundance (4.5 h post-induction vs induction); higher = less antimicrobial activity (less host growth inhibition). The note with it: time post-induction: 4.5 h; library: site-saturation at positions 5, 18, 19, 20.
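Note: peptides expressed intracellularly from a pBAD plasmid library in pooled LB shake-flask culture, induced with 0.3% L-arabinose, DNA abundance read by NGS, three biological replicates, DESeq2 with apeglm shrinkage.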

Take RRIRPRPPRLPRPRPRPCMSPRP: the “shrunken log2 fold change” value was -0.0701.

For the sequence RRIRYRPPRLPRPRPRPINCPRP, the “shrunken log2 fold change” value was -0.122.

As for RRIRRRPPRLPRPRPRPSYIPRP, the “shrunken log2 fold change” value was -0.416. Under RRIRDRPPRLPRPRPRPQMNPRP stands -0.315; under RRIRKRPPRLPRPRPRPIKNPRP, -0.188; under RRIRHRPPRLPRPRPRPISLPRP, -0.234.

RRIRKRPPRLPRPRPRPSKSPRP: the “shrunken log2 fold change” value is -0.141. For RRIRSRPPRLPRPRPRPNTMPRP, the “shrunken log2 fold change” value is -0.154.

Consider RRIRPRPPRLPRPRPRPDMAPRP, for which the “shrunken log2 fold change” value is -0.119. RRIRCRPPRLPRPRPRPEMRPRP: the “shrunken log2 fold change” value worked out at 0.835. Next, RRIRERPPRLPRPRPRPYVTPRP: -0.447. Under RRIRLRPPRLPRPRPRPEHEPRP stands 0.13; under RRIRNRPPRLPRPRPRPKMIPRP, -0.495.

In the case of RRIRARPPRLPRPRPRPGDPPRP, the “shrunken log2 fold change” value was found to be 0.971. Next, RRIRIRPPRLPRPRPRPCANPRP: -0.234; RRIRGRPPRLPRPRPRPQDMPRP: 0.0811. Next, RRIRCRPPRLPRPRPRPQQEPRP: -0.051. Next, RRIRFRPPRLPRPRPRPQFYPRP: -0.592; RRIRERPPRLPRPRPRPCNWPRP: -0.0685; RRIRCRPPRLPRPRPRPFSNPRP: -0.117.

In the case of RRIRSRPPRLPRPRPRPHFCPRP, the “shrunken log2 fold change” value is -0.29.

Regarding RRIRMRPPRLPRPRPRPQRIPRP, the “shrunken log2 fold change” value was -0.0462. Next, RRIRARPPRLPRPRPRPPEDPRP: 0.308; RRIRYRPPRLPRPRPRPNRVPRP: -0.172; RRIRARPPRLPRPRPRPNKCPRP: -0.311.

With RRIRTRPPRLPRPRPRPLRSPRP, the “shrunken log2 fold change” value came to 0.387. Next, RRIRTRPPRLPRPRPRPYQWPRP: -0.216; RRIRVRPPRLPRPRPRPGPHPRP: 0.121; RRIRYRPPRLPRPRPRPYIQPRP: -0.294. Under RRIRWRPPRLPRPRPRPIGYPRP stands -0.0135; under RRIRLRPPRLPRPRPRPIGWPRP, 0.156; under RRIRNRPPRLPRPRPRPPDNPRP, -0.146.

For the sequence RRIRCRPPRLPRPRPRPHNYPRP, the “shrunken log2 fold change” value is -0.831. Under RRIRVRPPRLPRPRPRPQHYPRP stands -0.718; under RRIRIRPPRLPRPRPRPVGFPRP, -0.182. Next, RRIRSRPPRLPRPRPRPDEGPRP: 0.0432; RRIRKRPPRLPRPRPRPLLTPRP: 0.652. For the sequence RRIRSRPPRLPRPRPRPYKVPRP, the “shrunken log2 fold change” value was -0.0179. Under RRIRNRPPRLPRPRPRPSILPRP stands -0.151.

As to RRIRVRPPRLPRPRPRPVDGPRP, the “shrunken log2 fold change” value was determined as 0.021. As to RRIRYRPPRLPRPRPRPAWPPRP, the “shrunken log2 fold change” value was determined as 0.363. Take RRIRYRPPRLPRPRPRPVEIPRP: the “shrunken log2 fold change” value was -0.00968. RRIRQRPPRLPRPRPRPNQHPRP: the “shrunken log2 fold change” value was found to be 0.0696. Under RRIRRRPPRLPRPRPRPCCVPRP stands 0.415; under RRIRMRPPRLPRPRPRPTSYPRP, -0.0286; under RRIRMRPPRLPRPRPRPYAKPRP, 0.00938. Next, RRIRNRPPRLPRPRPRPGACPRP: 0.0367. On to RRIRVRPPRLPRPRPRPEHEPRP, for which the “shrunken log2 fold change” value was -0.12.

For RRIRARPPRLPRPRPRPHMLPRP, the “shrunken log2 fold change” value is -0.196. As to RRIRCRPPRLPRPRPRPGHKPRP, the “shrunken log2 fold change” value is -0.514. Next, RRIRLRPPRLPRPRPRPLLGPRP: 0.0797. Next, RRIRLRPPRLPRPRPRPKVLPRP: -0.128; RRIRDRPPRLPRPRPRPDFIPRP: 0.0951. Next, RRIRTRPPRLPRPRPRPAGMPRP: 0.0244; RRIRFRPPRLPRPRPRPITHPRP: -0.49. Turning to RRIRMRPPRLPRPRPRPGWPPRP, the “shrunken log2 fold change” value came to 0.595. With RRIRIRPPRLPRPRPRPHSDPRP, the “shrunken log2 fold change” value is -0.439.

Take RRIRPRPPRLPRPRPRPSRSPRP: the “shrunken log2 fold change” value turned out to be 0.0328. Under RRIRDRPPRLPRPRPRPTEQPRP stands -0.0141; under RRIRNRPPRLPRPRPRPSNDPRP, -0.349. Under RRIRWRPPRLPRPRPRPASNPRP stands -0.0347. Next, RRIRFRPPRLPRPRPRPEGSPRP: -0.134; RRIRRRPPRLPRPRPRPCQYPRP: -0.137; RRIRMRPPRLPRPRPRPDNQPRP: 0.0198. Turning to RRIRKRPPRLPRPRPRPQIYPRP, the “shrunken log2 fold change” value is -0.159. Take RRIRWRPPRLPRPRPRPNELPRP: the “shrunken log2 fold change” value came to 0.073. Next, RRIRQRPPRLPRPRPRPDIIPRP: -0.0199. With RRIRCRPPRLPRPRPRPRFLPRP, the “shrunken log2 fold change” value was -0.232. In the case of RRIRYRPPRLPRPRPRPHYAPRP, the “shrunken log2 fold change” value was -0.0853. Under RRIRYRPPRLPRPRPRPPPFPRP stands 0.328; under RRIRGRPPRLPRPRPRPMYPPRP, 0.244; under RRIRGRPPRLPRPRPRPLFIPRP, -0.234. Consider RRIRGRPPRLPRPRPRPGCPPRP, for which the “shrunken log2 fold change” value worked out at 0.806. Next, RRIRDRPPRLPRPRPRPSHTPRP: -0.436; RRIRYRPPRLPRPRPRPISFPRP: -0.00256; RRIRSRPPRLPRPRPRPDRAPRP: 0.611. Under RRIRSRPPRLPRPRPRPREAPRP stands 0.587. Regarding RRIRYRPPRLPRPRPRPQFPPRP, the “shrunken log2 fold change” value is -0.0877.

With RRIRERPPRLPRPRPRPTCWPRP, the “shrunken log2 fold change” value was determined as 0.0288. Next, RRIRPRPPRLPRPRPRPRVEPRP: 0.625.

For RRIRMRPPRLPRPRPRPNGWPRP, the “shrunken log2 fold change” value came out at 0.175. On to RRIRDRPPRLPRPRPRPVIFPRP, for which the “shrunken log2 fold change” value worked out at 0.212. Under RRIRNRPPRLPRPRPRPECLPRP stands 0.254. Under RRIRHRPPRLPRPRPRPSMWPRP stands -0.095.

RRIRYRPPRLPRPRPRPSQLPRP: the “shrunken log2 fold change” value was -0.506. RRIRFRPPRLPRPRPRPTHYPRP: the “shrunken log2 fold change” value is -0.0275. Under RRIRGRPPRLPRPRPRPTLYPRP stands 0.598. Next, RRIRLRPPRLPRPRPRPACRPRP: 0.227; RRIRVRPPRLPRPRPRPSCWPRP: 0.178. Next, RRIRHRPPRLPRPRPRPPHPPRP: 0.15; RRIRCRPPRLPRPRPRPMQFPRP: -0.113. On to RRIRQRPPRLPRPRPRPTPPPRP, for which the “shrunken log2 fold change” value was 0.537. Under RRIRNRPPRLPRPRPRPITDPRP stands -1.28; under RRIRDRPPRLPRPRPRPHSIPRP, 0.0345. Under RRIRYRPPRLPRPRPRPSGHPRP stands -0.265.

For the sequence RRIRIRPPRLPRPRPRPSLSPRP, the “shrunken log2 fold change” value was -0.692.

Turning to RRIRWRPPRLPRPRPRPEELPRP, the “shrunken log2 fold change” value was -0.00088. Under RRIRPRPPRLPRPRPRPHYDPRP stands -0.459. Under RRIRPRPPRLPRPRPRPHSYPRP stands 0.0057. In the case of RRIRERPPRLPRPRPRPNNCPRP, the “shrunken log2 fold change” value was -0.24. Under RRIRCRPPRLPRPRPRPEDGPRP stands -0.0134. Turning to RRIRIRPPRLPRPRPRPCYDPRP, the “shrunken log2 fold change” value is -0.014. Next, RRIRFRPPRLPRPRPRPYRWPRP: -0.0143.

On to RRIRLRPPRLPRPRPRPMWPPRP, for which the “shrunken log2 fold change” value is -0.0364.

Consider RRIRQRPPRLPRPRPRPSCVPRP, for which the “shrunken log2 fold change” value was -0.478.

On to RRIRLRPPRLPRPRPRPMAVPRP, for which the “shrunken log2 fold change” value is -0.0225. Next, RRIRDRPPRLPRPRPRPSYEPRP: 0.175; RRIRERPPRLPRPRPRPVDAPRP: -0.137; RRIRMRPPRLPRPRPRPKKPPRP: 0.102. Under RRIRFRPPRLPRPRPRPAHCPRP stands 0.0781. In the case of RRIRFRPPRLPRPRPRPQNKPRP, the “shrunken log2 fold change” value was -0.592. Take RRIRTRPPRLPRPRPRPACCPRP: the “shrunken log2 fold change” value is 0.263. Next, RRIRPRPPRLPRPRPRPSFSPRP: -0.578; RRIRPRPPRLPRPRPRPPFKPRP: 0.0437. Next, RRIRRRPPRLPRPRPRPKHGPRP: -0.0664. Under RRIRLRPPRLPRPRPRPGCQPRP stands -0.00705.

For RRIRCRPPRLPRPRPRPEIAPRP, the “shrunken log2 fold change” value came to 0.193. Next, RRIRQRPPRLPRPRPRPSTVPRP: -0.534.

RRIRLRPPRLPRPRPRPVIFPRP: the “shrunken log2 fold change” value was -0.141. Next, RRIRGRPPRLPRPRPRPVNQPRP: 0.35. Under RRIRQRPPRLPRPRPRPINNPRP stands -0.803; under RRIRSRPPRLPRPRPRPCLVPRP, -0.379. Under RRIRKRPPRLPRPRPRPCEYPRP stands 0.0394; under RRIRTRPPRLPRPRPRPWHAPRP, 0.093. With RRIRKRPPRLPRPRPRPDYAPRP, the “shrunken log2 fold change” value was 0.102.
